Assay [1] addresses T1, insulin (Homo sapiens (Human), UniProt P01308 25-54; P01308 90-110, Mature two-chain hormone: A and B chains joined by two interchain disulfides, plus one intrachain disulfide in the A chain; the letters do not carry these.).
T1 construct: Irrelevant antigen of the multi-antigen specificity ELISA; also called insulin (125 ng/well, 19278; Sigma)
Description: indirect ELISA; plate-coated insulin, antibody 100 nM, anti-human Fc-HRP, absorbance at 450 nm. On the procedure:
(§1) The binding specificity of anti-IL-5Rα humanized antibodies was determined using indirect ELISA. A multi-antigen ELISA was performed using four structurally different antigenic double-stranded DNA (dsDNA), insulin, the macromolecule hemocyanin, and the membrane component, cardiolipin. Specifically, sIL-4Rα antigen protein (50 ng/well, Sinobio; 10402-H08H), sIL-5Rα antigen protein (50 ng/well, Sinobio; 10392-H08H), dsDNA (25 ng/well, D4522; Sigma), insulin (125 ng/well, 19278; Sigma), hemocyanin (125 ng/well, H8283; Sigma), and cardiolipin (1250 ng/well, C0563; Sigma) proteins were immobilized on a 96-well plate at room temperature for 1 hour, and blocked using 2% skim milk containing 0.1% PBST (0.1% Tween20, pH 7.4, 137 mM NaCl, 10 mM phosphate, 2.7 mM KCl) at room temperature for 1 hour. After discarding the solution and then washing the same three times with 0.1% PBST, the antibody was diluted to 100 nM, added to the blocked plate in an amount of […], and allowed to react at room temperature for 1 hour. […] After discarding the solution and washing three times with PBST, a TMB solution was added in an amount of […], color development was induced at room temperature for 2 minutes, the reaction was stopped using H₂SO₄ (2N), and the absorbance at 450 nm was measured with an ELISA reader.

Assay [2] deals with T2, sIL-4Rα (soluble IL-4Rα) antigen protein (human, UniProt P24394 26-232).
T2 construct: The ELISA and Octet assays used the bought protein (Sinobio 10402-H08H); also called CD124; sinobio 10402-H08H
In words: indirect ELISA; plate-coated sIL-4Rα, antibody 100 nM, anti-human Fc-HRP, absorbance at 450 nm. The protocol:
as §1

In assay [3] the target is T3, purified sIL-5Rα (Asp1-Asn313 of SEQ ID NO: 66) (Homo sapiens (Human), UniProt Q01344 21-333).
T3 construct: also called the purified sIL-5Rα
T3 sequence: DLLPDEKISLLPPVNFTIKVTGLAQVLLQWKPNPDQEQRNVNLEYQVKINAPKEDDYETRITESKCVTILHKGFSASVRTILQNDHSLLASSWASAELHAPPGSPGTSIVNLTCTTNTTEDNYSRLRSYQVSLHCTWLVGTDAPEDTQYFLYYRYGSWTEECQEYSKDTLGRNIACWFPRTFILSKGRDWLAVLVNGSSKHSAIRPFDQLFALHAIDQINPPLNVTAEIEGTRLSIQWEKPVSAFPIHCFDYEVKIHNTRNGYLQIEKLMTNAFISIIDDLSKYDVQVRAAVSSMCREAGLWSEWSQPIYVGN
Description: BLI (Octet QKe), antibody on AHC sensor, purified sIL-5Rα in solution, 1:1 model. On the procedure:
Specifically, lx kinetic buffer was prepared by diluting 10× kinetic buffer (ForteBio, 18-1105) in PBS. […] Affinity was calculated with Octet Data Analysis software 11.0 in a 1:1 binding model.

The target of assay [4] is T4, sIL-5Rα antigen protein (Sinobio 10392-H08H) (Homo sapiens (Human), UniProt Q01344 21-342).
T4 construct: Bought protein immobilised in the indirect ELISAs; also called soluble IL-5Rα; CD125
T4 sequence: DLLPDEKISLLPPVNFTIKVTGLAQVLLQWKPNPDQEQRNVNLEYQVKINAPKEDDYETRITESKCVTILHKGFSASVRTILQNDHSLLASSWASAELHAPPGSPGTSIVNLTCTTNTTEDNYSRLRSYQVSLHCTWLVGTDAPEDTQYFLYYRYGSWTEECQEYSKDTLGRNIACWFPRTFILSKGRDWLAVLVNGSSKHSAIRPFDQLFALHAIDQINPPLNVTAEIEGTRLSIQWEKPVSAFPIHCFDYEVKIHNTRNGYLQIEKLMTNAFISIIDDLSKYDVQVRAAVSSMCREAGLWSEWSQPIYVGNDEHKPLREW
Description: indirect ELISA; plate-coated sIL-5Rα, antibody 100, 10, 1 nM, anti-human Fc-HRP, absorbance at 450 nm. The protocol: After discarding the solution and washing the same three times with 0.1% PBST, an anti-human Fc-HRP antibody (1:8000) as a secondary antibody was added in an amount of 25 μl/well and reacted at room temperature for 1 hour.

T1 sequence (P01308 25-54 limits assumed, chain 1 of 2): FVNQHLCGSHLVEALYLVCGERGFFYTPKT
T1 sequence (P01308 90-110 limits assumed, chain 2 of 2): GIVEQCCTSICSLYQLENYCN

B1: 5R65.45 (antibody, IgG1, V domains shown)
VH: QVQLVQSGAEVKKPGSSVKVSCKASGYTFTSYWINWVRQAPGQGLEWIGHIYPNKNENYYNHKFKDKATLTVDKSTNTAYMELSSLRSEDTAVYYCTREYYGRSYYNAMDYWGQGTTLTVSS
VL: DIQMTQSPSTLSASVGDRVTITCKASQNVGTAVAWYQQKPGKAPKLLIYWASTRHTGVPDRFSGSGSGTDFTLTISSLQPDDFATYYCQQFGRYPYTFGSGTKVEVK
notes: IgG1
With B1, in assay [1], the binding result is “no binding (tested: 100 nM)”. Moreover, the binding result in assay [2] is given as “no binding (tested: 100 nM)”. In assay [3], the Kd was determined as 7.26 nM, the koff was found to be 0.000181 s⁻¹ and the kon stood at 24900 M⁻¹ s⁻¹.

B2: 4R34.1.19-SL-5R65 (bispecific antibody, human IgG1, kappa)
light: QSVLTQPPSASGTPGQRVTISCSGSPLFPDSGSFNWYQQLPGTAPKLLIYADSHRPSGVPDRFSGSKSGTSASLAISGLRSEDEADYYCGTWDYSLSGYVLGGGTKLTVLGTVAAPDIQMTQSPSTLSASVGDRVTITCKASQNVGTAVAWYQQKPGKAPKLLIYWASTRHTGVPDRFSGSGSGTDFTLTISSLQPDDFATYYCQQFGRYPYTFGSGTKVEVKRTVAAPSVFIFPPSDEQLKSGTASVVCLLNNFYPREAKVQWKVDNALQSGNSQESVTEQDSKDSTYSLSSTLTLSKADYEKHKVYACEVTHQGLSSPVTKSFNRGEC
heavy: not shown
notes: The 4R34.1.19 variable regions are outermost and the 5R65 variable regions come second; also called 4R-SL-5R; DVD-IgG
In the case of B2, the binding result in assay [4] was “binds”.

(Values after patent publication US20230357415A1 (AJOU UNIVERSITY INDUSTRY ACADEMIC COOPERATION FOUNDATION, published 2023).)
